Values of other authors as cited in PMC4941815.

Tests used:
CLK1 (Homo sapiens) = CLK1 (Homo sapiens) (UniProt P49759); assay: competition
SRPK1 (Homo sapiens) = SRPK1 (Homo sapiens) (UniProt Q96SB4); assay: competition
Chain of SRPK1 (Homo sapiens) (Q96SB4 whole entry): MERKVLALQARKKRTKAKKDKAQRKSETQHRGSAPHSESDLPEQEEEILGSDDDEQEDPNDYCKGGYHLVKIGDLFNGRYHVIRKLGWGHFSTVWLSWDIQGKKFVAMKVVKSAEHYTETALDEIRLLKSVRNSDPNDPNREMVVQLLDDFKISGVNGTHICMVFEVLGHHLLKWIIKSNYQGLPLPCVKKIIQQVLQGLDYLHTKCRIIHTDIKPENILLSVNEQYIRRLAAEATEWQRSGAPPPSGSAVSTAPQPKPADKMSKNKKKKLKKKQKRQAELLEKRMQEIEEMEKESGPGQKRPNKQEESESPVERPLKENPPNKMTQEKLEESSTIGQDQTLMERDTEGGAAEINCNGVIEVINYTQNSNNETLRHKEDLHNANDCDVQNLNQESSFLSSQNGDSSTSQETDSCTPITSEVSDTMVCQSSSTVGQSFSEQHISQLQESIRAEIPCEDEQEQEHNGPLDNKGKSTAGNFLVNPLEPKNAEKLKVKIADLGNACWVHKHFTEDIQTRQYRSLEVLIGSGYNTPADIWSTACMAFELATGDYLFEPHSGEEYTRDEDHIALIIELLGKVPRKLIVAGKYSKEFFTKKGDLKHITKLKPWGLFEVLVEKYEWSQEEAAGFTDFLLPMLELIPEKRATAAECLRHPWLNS

Chain of SRSF1 (Q07955 2-248): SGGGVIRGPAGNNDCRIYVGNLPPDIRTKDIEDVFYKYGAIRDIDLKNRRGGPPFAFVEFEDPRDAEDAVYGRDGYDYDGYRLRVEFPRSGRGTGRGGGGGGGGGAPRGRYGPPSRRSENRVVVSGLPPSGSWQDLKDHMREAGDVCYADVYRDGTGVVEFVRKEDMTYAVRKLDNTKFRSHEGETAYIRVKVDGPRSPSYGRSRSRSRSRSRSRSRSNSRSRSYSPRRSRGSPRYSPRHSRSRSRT
Chain of CLK1 (Homo sapiens) (P49759 whole entry): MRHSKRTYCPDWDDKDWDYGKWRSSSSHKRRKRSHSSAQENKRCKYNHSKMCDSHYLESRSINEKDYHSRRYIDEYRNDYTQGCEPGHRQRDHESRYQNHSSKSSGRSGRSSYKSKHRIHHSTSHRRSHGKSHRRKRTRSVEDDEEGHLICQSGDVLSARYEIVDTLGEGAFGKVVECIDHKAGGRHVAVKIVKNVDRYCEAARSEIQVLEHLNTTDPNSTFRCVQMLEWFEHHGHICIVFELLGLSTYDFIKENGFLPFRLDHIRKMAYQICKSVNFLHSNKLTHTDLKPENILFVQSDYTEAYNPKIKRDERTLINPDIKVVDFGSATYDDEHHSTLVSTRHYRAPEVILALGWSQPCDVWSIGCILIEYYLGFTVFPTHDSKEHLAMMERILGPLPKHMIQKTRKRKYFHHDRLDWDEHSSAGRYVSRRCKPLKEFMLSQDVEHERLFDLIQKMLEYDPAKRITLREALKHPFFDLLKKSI

Kd (CLK1 (Homo sapiens)): 6 nM
Kd (SRPK1 (Homo sapiens)): 60 nM
Substance: SRSF1 (from UniProt Q07955)
